Results reported in US10877024B2, “Methods of determining interferon having direct inhibitory effects on tumors and uses thereof” (SUPERLAB FAR EAST LIMITED, priority 2015, dated 2020).
Read-outs that look alike come from different tables or passages of the source.

Assays:
SW620 tumor cells = test: Cell viability, MTT assay, 1-6 days; format: cell-based, human; settings: 10 μg/ml
Method: The cell survival rate was evaluated in a standard MTT assay [3-(4,5-dimethylthiazol-2-yl)-2,5-diphenyltetrazolium bromide assay, Sigma, St. Louis, Mo.). For the assay, about 20 μl MTT (at 4 mg/ml) was added to each well. The cells were incubated at 37° C. for 4 hr. After that, the supernatant of each well was drawn off carefully and then an equal volume (150 microliter) of dimethyl sulfoxide (DMSO) was added to each well and mixed thoroughly on a shaker for 15 min. The absorbance from the plates was read at 595 nm with a Thermo Scientific Microplate Reader (Thermo Fisher Scientific Inc., Lowell, Mass.). The relative cell viability was calculated as follows: Cell viability=(Treated group(OD595) minus blank(OD595))/(Control group(OD595) minus blank(OD595))×100%.

Lung cancer cells, A549 = test: Colony and pseudopod formation in three dimensional Matrigel culture; format: cell-based, human; settings: 10 mcg/ml
Method: Matrigel (from BD Corporation, Cat #: 356234) was thawed on ice in a 4° C. refrigerator overnight, and a 24-well plate was frozen at −20° C. overnight. Thereafter, each well of the frozen 24-well plate was coated with 150 μl of the Matrigel at 1.0 mg/ml. The Matrigel coated plate was then incubated 37° C. for 20-30 min. Lung cancer cells, A549, were trypsinized and counted. […] The cells were incubated at 37° C. for at least about 8 days. About 200 μl of the above conditioned medium was added every 3 days to prevent the medium from drying. On the 4th or 8th day, photographs were taken to observe the size of the colonies and invasive feet (pseudopod) formation. The experiment was conducted in triplicate.

beta-catenin = test: Beta-catenin protein level by Western Blot; format: cell-based, human; settings: 10 mcg/ml, 24, 48, 72 hr
Method: Cancer cells, A549 and Sw480, were cultured to about 85% confluency and put into 6 well plates. […] After treatment, the cells were harvested for Western Blot to detect the beta-catenin protein level, using its specific antibody, with GAPDH as endogenous loading control. The experiment was conducted in triplicate.
To determine the expression of various proteins, cells were harvested from the plates and total cellular protein were extracted using extraction reagents (Cat #: P0013) according to the manufacturer's protocol (Beyotime, China). The total protein concentration was determined by the Lowry Protein Assay kit (Bio-Rad, USA). […] The membranes were blocked with 5% skimmed milk, bovine serum albumin, 10 mmol/L Tris-HCl at pH 8.0, 150 mmol/L NaCl, and 0.05% Tween 20 overnight at 4° C. The blocked membranes were then incubated with primary antibodies (1:1000 dilutions), followed by secondary HRP-conjugated antibodies. Blots were visualized using Luminescence/Fluorescence Imaging LAS4000 System (GE Healthcare Life Sciences, USA) with super signal west pico chemiluminescent substrate kit (Thermo scientific, USA).
For this determination, the primary antibodies used were mouse monoclonal anti-beta-catenin antibodies (1:1000; Santa Cruz Technology, Santa Cruz, Calif.) and mouse monoclonal anti-GAPDH antibodies (1:2000) (Kangwei Biotechnology, China). […]

CD24 = test: qPCR of Wnt signaling downstream gene in A549 cells; format: cell-based, human; settings: 10 μg/ml, 24 hr
Method: (§1) After 24 hr of treatment, cellular total mRNA was isolated using TRIZOL Reagent and cDNA was synthesized and further subjected to qPCR, using specific primers of four (4) Wnt signaling downstream genes, Axin2, CD24, Survivin and ID2. Experiments were conducted in triplicate and normalized with the Mock group.
(§2) Total mRNA was isolated using TRIZOL Reagent (Invitrogen, Carlsbad, Calif.) according to the manufacturer's instructions. Complementary DNA (cDNA) was synthesized using a RT-PCR Kit (Cat #:FSQ-101, TOYOBO, Japan) according to the manufacturer's instructions and then subjected to qPCR with a SYBR Green PCR kit (Cat #: QPK-201, TOYOBO, Japan). The primers of the four Wnt pathway target genes were as follows: Axin2 sense primer: 5′-[…]-3′ (SEQ ID NO:8) and antisense primer: 5′-[…]-3′(SEQ ID NO: 9); CD24 sense primer: 5′-[…]-3′ (SEQ ID NO: 10) and antisense primer: 5′-[…]-3′(SEQ ID NO: 11); Survivin sense primer: 5′-[…]-3′ (SEQ ID NO: 12) and antisense primer: 5′-[…]-3′ (SEQ ID NO: 13) and ID2 sense primer: 5′-[…]-3′ (SEQ ID NO: 14) and antisense primer: 5′-[…]-3′(SEQ ID NO: 15).
(§3) The amplification protocol consisted of incubations at 95° C. for 1 minute, 40 cycles (95° C. for 15 seconds, 60° C. for 15 seconds, 72° C. for 30 seconds). Incorporation of the SYBR Green dye into PCR products was monitored in real time with a Bio-Rad Detection System and subsequently analyzed using Bio-Rad CFX manager 2.1 software. The samples were pooled for each condition and run in duplicate. Treated samples were compared to Mock using the 2^−ΔΔCt method and plotted as fold change. GAPDH was used as the normalization control.

Survivin = test: as above; format: cell-based, human; settings: 10 μg/ml, 24 hr
Method: as §1, §2, §3

ID2 = test: as above; format: cell-based, human; settings: 10 μg/ml, 24 hr
Method: as §1, §2, §3

Axin2 = test: as above; format: cell-based, human; settings: 10 μg/ml, 24 hr
Method: as §1, §2, §3

[1] = test system: human lung cancer SPC-A4 xenografts; settings: for TV(mm^3, mean ± SD) (D 0): day 0; for % Inhibition / RTV (mean ± SD) / T/C (%) / TV(mm^3, mean ± SD) (D 21): day 21
Method: Under sterile conditions, well-grown tumors were cut into 1.5 mm^3 fragments and one such fragment was injected by trocar needle into the right flank of each study animal. […] Individual tumor size (length and width) was measured twice per week with microcalipers. Tumor volume (V) was calculated using the formula: V=(length×width^2)/2. Individual relative tumor volume (RTV) was calculated using the formula: RTV=Vt/V0, where Vt is the tumor volume on the day of measurement and V0 is the tumor volume on the day of first treatment. Therapeutic effect of the test article or control article was expressed in terms of T/C (%), using the formula: T/C (%)=(mean RTV of the treated group/mean RTV of the control group)×100%; and in terms of % Inhibition, using the formula: % Inhibition=100%−T/C %.
The 1.5 mm^3 fragments were then used for s.c. implantation into the test animals. The body weight of the animals averaged 22±2 g at dose initiation.

DKK-3 = test: qPCR of tumor suppressor gene; format: cell-based, human; settings: A549 cells, 10 mcg/ml, 24 hr
Method: After 24 hr of treatment, total cellular mRNA was isolated using TRIZOL Reagent, and cDNA was synthesized, and further subjected to qPRC using specific primers for DKK3, KLF4 and BATF2.
The experiment was conducted in triplicate and normalized with the mock control group.

[2] = test system: Human Colon Cancer HT-29 Xenografts; test: rSIFN-co on human colon cancer HT-29 xenografts in nude mice; format: in vivo; settings: for TV(mm^3, mean ± SD) (D 0): day 0; for % Inhibition / T/C (%) / TV(mm^3, mean ± SD) (D 28): day 28
[3] = 0.05 mg/mouse i.t. every other day
[4] = 0.10 mg/mouse i.t. every other day
[5] = 0.15 mg/mouse i.t. every other day

B1: rSIFN-co: Recombinant super-compound interferon; amino acid sequence SEQ ID NO: 1 (same as INFERGEN), encoded by novel nucleotide sequence SEQ ID NO: 2 (protein)
chain: MCDLPQTHSLGNRRALILLAQMRRISPFSCLKDRHDFGFPQEEFDGNQFQKAQAISVLHEMIQQTFNLFSTKDSSAAWDESLLEKFYTELYQQLNDLEACVIQEVGVEETPLMNVDSILAVKKYFQRITLYLTEKKYSPCAWEVVRAEIMRSFSLSTNLQERLRRKE
modifications: Amino acid sequence of recombinant interferon
SW620 tumor cells
  cell viability over time (MTT): strongly decreased cell viability of SW620 cells in a time-dependent manner
Lung cancer cells, A549; after 4 days
  size of the colonies: smaller colonies than the untreated group
Lung cancer cells, A549; after 8 days
  invasive feet (pseudopod) formation: almost no extrusive pseudopodium around the cells
  size of the colonies: smallest colonies of the 3 groups
beta-catenin; A549 cells
  beta-catenin protein level: dramatically decreased beta-catenin protein level after treatment for 2 days (48 hr)
beta-catenin; SW480 cells
  beta-catenin protein level: obvious after 72 hours of treatment
CD24
  relative expression level of CD24 mRNA (Mock control set at 1): about 0.4
Survivin
  relative expression level of Survivin mRNA (Mock control set at 1): about 0.4
ID2
  relative expression level of ID2 mRNA (Mock control set at 1): about 0.4
Axin2
  relative expression level of Axin2 mRNA (Mock control set at 1): about 0.4
[1]; [3]
  mortality: one mouse in the 0.05 mg rSIFN-co-treated group died on day 17
  TV(mm^3, mean ± SD) (D 0): 170 ± 41 mm^3
  % Inhibition: 63.68%
  RTV (mean ± SD): 15.45 ± 9.07
  T/C (%): 36.32%
  TV(mm^3, mean ± SD) (D 21): 2244 ± 1043 mm^3
[1]; [4]
  TV(mm^3, mean ± SD) (D 0): 168 ± 49 mm^3
  % Inhibition: 64.95%
  RTV (mean ± SD): 14.91 ± 11.19
  T/C (%): 35.05%
  TV(mm^3, mean ± SD) (D 21): 2388 ± 1544 mm^3
[1]; [5]
  TV(mm^3, mean ± SD) (D 0): 169 ± 40 mm^3
  % Inhibition: 67.75%
  RTV (mean ± SD): 13.72 ± 3.96
  T/C (%): 32.25%
  TV(mm^3, mean ± SD) (D 21): 2284 ± 653 mm^3
[1]; 0.05-0.15 mg/mouse i.t. every other day, 21 days
  tolerability, signs of toxicity or weight loss: no signs of toxicity or weight loss were observed
DKK-3
  relative mRNA expression level of DKK-3: dramatically increased
[2]; [3]
  TV(mm^3, mean ± SD) (D 0): 130 ± 26 mm^3
  % Inhibition: 61%
  T/C (%): 39%
  TV(mm^3, mean ± SD) (D 28): 416 ± 166 mm^3
[2]; [4]
  TV(mm^3, mean ± SD) (D 0): 128 ± 39 mm^3
  % Inhibition: 49.82%
  T/C (%): 50.18%
  TV(mm^3, mean ± SD) (D 28): 541 ± 196 mm^3
[2]; [5]
  TV(mm^3, mean ± SD) (D 0): 131 ± 36 mm^3
  % Inhibition: 46.37%
  T/C (%): 53.63%
  TV(mm^3, mean ± SD) (D 28): 570 ± 144 mm^3
[2]; 0.05-0.15 mg/mouse i.t. every other day, 28 days
  tolerability, signs of drug toxicity, changes in weight: tolerated the tested dosages and showed no signs of drug toxicity and minimal changes in weight
